The record followed here is the nanobody polyreactivity screen of Harvey et al. (2022).

The series is described as follows: yeast display, Sf9 membrane polyspecificity reagent, FACS + sequencing; frameworks hold sequencing errors. The gist of the method:
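Nanobodies came from a synthetic yeast display library in Saccharomyces cerevisiae BJ5465, induced with galactose for 36–48 hours and stained for 1 hour at 4 °C with 10% biotinylated, detergent-solubilized Sf9 membrane reagent. Cells were enriched on streptavidin microbeads and then FACS-sorted, with low and high (top ~1%) gates set on anti-HA fluorescence for expression and streptavidin fluorescence for reagent binding. Each polyreactivity label reflects the gate a clone came from. Genes were amplified by colony PCR, sequenced by MiSeq 2 × 250 and filtered by CDR length.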
For “QVQLVESGGGLVQAGGSLRLSCAASGSIFRYYAMGWYRQAPGKERELVAAISSRGGTTHYADSVKGRFTISRDNAKNTVYLQMNSLKPEDTAVYYCAADYYLATNPAPLAAGRGYWGQGTQVTVSS”, the “polyreactivity (PSR sort gate)” value was “high polyreactivity”.

Consider “QVQLVESGGGLVQAGGSLRLSCAASGSIFRYYAMGWYRQAPGKERELVAAISWDGGTTYYADSVKGRFTISRDNAKNTVYLQMNSLKPEDPAVYYCNVEFPLSSYGYDYWGQGTQVTVSS”, for which the “polyreactivity (PSR sort gate)” value is “low polyreactivity”.

For the sequence “QVQLVESGGGLVQAGGSLRLSCAASGSIFRYYAMGWYRQAPGKERELVAAISWSVGGTYYADSVKGRFTISRDNAKNTVYLQMNSLKPEDTAVYYCAADVLYTQYGYWGQGTQVTVSS”, the “polyreactivity (PSR sort gate)” value was “low polyreactivity”. For the sequence “QVQLVESGGGLVQAGGSLRLSCAASGSIFRYYAMGWYRQAPGKERELVASINSGGSTYYADSVKGRFTISRDNAKNTVYLLMNSLKPEDTAVYYCAAETSYYYRGYWKSYDYWGQGTQVTVSS”, the “polyreactivity (PSR sort gate)” value is listed as “high polyreactivity”. Take “QVQLVESGGGLVQAGGSLRLSCAASGSIFRYYAMGWYRQAPGKERELVASIRRGDSTYYADSVKGRFTISRDNAKNTVYLQMNSLKPEDTAVYYCAARFFWPQRGGYWGQGTQVTVSS”: the “polyreactivity (PSR sort gate)” value is recorded as “high polyreactivity”.

With “QVQLVESGGGLVQAGGSLRLSCAASGSIFRYYTMGWYRQAPGKERELVAAISWSGGSTYYADSVKGRFTISRDNAKNTVYLQMNSLKPEDTPVYYCNAVSFAYNPYSGTYDYRGQGTQVTVSS”, the “polyreactivity (PSR sort gate)” value is recorded as “high polyreactivity”.

For “QVQLVESGGGLVQAGGSLRLSCAASGSIFRYYVMGWYRQAPGKERELVAAISGGSTYYADSVKGRFTISRDNAKNTVYLQMNSLKPEDTAVYYCAAEQWSTGYYYWGQGTQVTVSS”, the “polyreactivity (PSR sort gate)” value is “high polyreactivity”.

For the sequence “QVQLVESGGGLVQAGGSLRLSCAASGSIFSANAMGWYRQAPGKERELVAAISSSGNTNYSDSVKWRFTISRDNAKNTFYLQMNSLKPEDTAVYYCAVELKQVTPGLGYITLDYWGQGTQVTVSS”, the “polyreactivity (PSR sort gate)” value is on record as “low polyreactivity”. For “QVQLVESGGGLVQAGGSLRLSCAASGSIFSANTMGWYRQAPGNEREFVAGITTSAGRTDYADSVKGRFTISRDNAKNTVYVQMNSLKPEDTAVYYCNADRRYYYHYRRYWYDYWGQGTQVTVSS”, the “polyreactivity (PSR sort gate)” value is given as “high polyreactivity”.

Consider “QVQLVESGGGLVQAGGSLRLSCAASGSIFSANVMGWYRQAPGTERELVAAIRRGGTTYYADSVKGRFTISRDNAKNTVYLQMNSLKPEDTAVYYCATDGIFGSYLRFEVAYDYWGQGTQVTVSS”, for which the “polyreactivity (PSR sort gate)” value is given as “low polyreactivity”. Take “QVQLVESGGGLVQAGGSLRLSCAASGSIFSAYAMGWYRQAPGKERELVAAISWRTGRTYYADSVKGRFTISRDNAKNTVYLQMNSLKPEDTAVYYCAVVLGVRPYDKHDYWGQGTQVTVSS”: the “polyreactivity (PSR sort gate)” value is recorded as “high polyreactivity”. In the case of “QVQLVESGGGLVQAGGSLRLSCAASGSIFSDNAMGWYRQAPGKERELVAAITWSGGSTYYADSVKGRFTISRDNAKNTVYLQMNSLKPEDTAVYYCAADGDYYWYYHGTYDYWGQGTQVTVSS”, the “polyreactivity (PSR sort gate)” value is listed as “low polyreactivity”. The value for “QVQLVESGGGLVQAGGSLRLSCAASGSIFSDNAMGWYRQAPGKERELVASITNSGSTNYADSVKGRFTISRDNAKNTVYLQMNSLKPEDTAVYYCAFSFLYTYDYWGQGTQVTVSS” was “low polyreactivity”; that for “QVQLVESGGGLVQAGGSLRLSCAASGSIFSDYAMGWYRQAPGKETELVAGISSGGGTTYADSVKGRFTISRDNAKNTVYLQMNSLKPEDTAVYYCNKQDQPVGRSGYPYGYDYWGQGTQVTVSS” was “low polyreactivity”; that for “QVQLVESGGGLVQAGGSLRLSCAASGSIFSFNAMGWYRQAPGKERELVAAITTSGGSTYADSVKGLFTISRDNAKNTVYLQMNSLKPEDTAVYYCAVVGEVEGYYWDDYWGQGTKVTVSS” was “low polyreactivity”. Consider “QVQLVESGGGLVQAGGSLRLSCAASGSIFSFYAMGWYRQAPGKERELVAAISWSGGSTYYADSVKGRFTISRDNAKNTVYLQMNSLKPEDTAVYYCAADYYYGTYDYWGQGTQVTVST”, for which the “polyreactivity (PSR sort gate)” value is “low polyreactivity”.

Regarding “QVQLVESGGGLVQAGGSLRLSCAASGSIFSFYAMGWYRQAPGKERELVAAITSDGSTDYADSVKGRFTISRDNAKNTVYLQMNSLKPEDTAVYYCAADYIVRVVSRYRYGYEYWGQGTQVTVSL”, the “polyreactivity (PSR sort gate)” value is reported as “low polyreactivity”.

As for “QVQLVESGGGLVQAGGSLRLSCAASGSIFSFYAMGWYRQAPGKERELVAGIDISGGSTYYADSVKGRFTISRDNAKNTVYLQMNSLKPEDTAVYYCAAAKRTDYFYFVAKSGFRYYSWGQGTQVTVSS”, the “polyreactivity (PSR sort gate)” value was “high polyreactivity”. The result for “QVQLVESGGGLVQAGGSLRLSCAASGSIFSFYAMGWYRQAPGKERELVASITRRGGSTSYADSVKGRFTISRDNAKNTVYLQMNSLKPEDTAVYYCATESKFISVQRVGYYYVKFDYWGQGTQVTVSS” reads “high polyreactivity”; that for “QVQLVESGGGLVQAGGSLRLSCAASGSIFSFYTMGWYRQAPGKERELVASSTTYADSVKGRFTISRDNAKNTVYLQMNSLQPEDTAVYYCATRHPARRDYWGQGTQVTVSS”, “low polyreactivity”; that for “QVQLVESGGGLVQAGGSLRLSCAASGSIFSFYTMGWYRQAPGKERELVATISWRSGSTYYADSVKGRFTISRDNAKNTVYLQMNSLKPEDTAVYYCARSTSRYYYWGQGTQVTVSS”, “high polyreactivity”.

With “QVQLVESGGGLVQAGGSLRLSCAASGSIFSGNAMGWYRQAAGKERELVAVITYRSSRTYYADSVKGRFTISRDNAKNTVYLQMNSLKPEDTAVYYCAAYSNRVVKGYGYWGQGTQVTVSS”, the “polyreactivity (PSR sort gate)” value is given as “high polyreactivity”. The value for “QVQLVESGGGLVQAGGSLRLSCAASGSIFSGNAMGWYRQAPGKERELVAAIDWSGDSTYYADSVKGRFTISRDNAKNTVYLQMNSLKPEDTAVYYCNTVSFSWGYSAYDYWGQGTQVTVSS” was “low polyreactivity”.

Turning to “QVQLVESGGGLVQAGGSLRLSCAASGSIFSGNAMGWYRQAPGKERELVAAISRNGGSTYYADSVKGRFTISRDNAMNTVYLQMISLKPEDTAVYYCAASWYRRKIYYSWGQGTQVTVSS”, the “polyreactivity (PSR sort gate)” value was “high polyreactivity”. The value for “QVQLVESGGGLVQAGGSLRLSCAASGSIFSGNVMGWYRPAPGKERELVAAISGRGGSTYYPDSVKGRFTISRDNAKNTVFLQMNSRNPVDTAVYECAAVYLKTYYWGQGTQVTVSS” was “high polyreactivity”; that for “QVQLVESGGGLVQAGGSLRLSCAASGSIFSGWYTMGWYRQAPWKERELVASISISTTDTYYADSVKGRFTISRDNAKNTVYVQMNSLKPEDTAVYYCAASGWDHVIVEYDYWGQGTQVTVSS” was “low polyreactivity”; that for “QVQLVESGGGLVQAGGSLRLSCAASGSIFSGYVMGWYRQAPGKERELVAAIDNSSGSTYYADSVKGRFTISRDNAKNTVYLQMNSLKPEDTAVYYCAADYYSKAYSEYDYWGQGTQVTVSS” was “low polyreactivity”.

In the case of “QVQLVESGGGLVQAGGSLRLSCAASGSIFSHYVMGWYRQAPGKERELVAAISRSGGTTYYADSVKGRFTISRDNAKNTVYLQMNSLKPEDTAVYYCNVRGEPYPYYDGYEYDYWGQGTQVTVSS”, the “polyreactivity (PSR sort gate)” value is “low polyreactivity”. Regarding “QVQLVESGGGLVQAGGSLRLSCAASGSIFSIYAMGWYRQAPGKERELVAAIDSGTSTTYADSVKGRFTISRDNAKNTVYLQMNSLKPEDTAVYYCAAALYSDVAAVATYVYYWGQGTQVTVSS”, the “polyreactivity (PSR sort gate)” value is “low polyreactivity”. Take “QVQLVESGGGLVQAGGSLRLSCAASGSIFSIYAMGWYRQAPGKERELVASITRSSGRTYYADSVKGRFTISRDNAKNTVYLQMNSLKPEDTAVYYCNAVWNTFISGRSYDYWGQGTQVTVSS”: the “polyreactivity (PSR sort gate)” value is listed as “low polyreactivity”. Consider “QVQLVESGGGLVQAGGSLRLSCAASGSIFSKNAMGWYRQAPGKERELVAAISWSGDRTYYADSVKGRFTISRDNAKNTVYLQMNSLKPEDTAVYYCAADYTVKYGYWGQGTQVTVSS”, for which the “polyreactivity (PSR sort gate)” value was “high polyreactivity”.

On to “QVQLVESGGGLVQAGGSLRLSCAASGSIFSKYAMGWYRQAPGKERELVAAISISDGNTYYADSVKGRFTISRDNAKNTVYLQMNSLKPEDTAVYYCATVGSEDGDPGFDYWGQGTQVTVSS”, for which the “polyreactivity (PSR sort gate)” value is “low polyreactivity”. The result for “QVQLVESGGGLVQAGGSLRLSCAASGSIFSKYVMGWYRQAPGKERELVAAISWSGTRTYYADSVKGRFTISRDNAKNTVYLQMNSLKPEDTAVYYCAARRPVRVPGQYDYWGQGTQVTVSS” reads “high polyreactivity”. Turning to “QVQLVESGGGLVQAGGSLRLSCAASGSIFSNNAMGWYRQAPGKEREFVAAIRGRGTRAYYADSVKGRFTISRDNAKNTVYLQMNSLKPEDTAVYYCAASARTYVQSGYWGQGTQVTVSS”, the “polyreactivity (PSR sort gate)” value is on record as “high polyreactivity”. With “QVQLVESGGGLVQAGGSLRLSCAASGSIFSPNAMGWYRQAPGKERELVAAISRGDSTYYADSVKGRFTISRDNAKNTVYLQMNSLKPEDTAVYYCAATYLRRPVSGAYRSEYNYWGQGTQVTVSS”, the “polyreactivity (PSR sort gate)” value was “high polyreactivity”. The result for “QVQLVESGGGLVQAGGSLRLSCAASGSIFSPNAMGWYRQAPGKERQLVAAIRSGGSTYYADSVKGRFTISRDNAKNSVYLQMNSLKPADTAVYYCAADTYTYYYYLARYYYWGQGTQVTVSS” reads “low polyreactivity”. The result for “QVQLVESGGGLVQAGGSLRLSCAASGSIFSPYAMGWYRQAPGKERELVAAISWTGGRTYYADSVKGRFTISRDNAKNTVYLQMNSLKPEDTAVYYGAAAYYGTRPYGYWGQGTQVTVSS” reads “high polyreactivity”; that for “QVQLVESGGGLVQAGGSLRLSCAASGSIFSPYAMGWYRQAPGKERELVAAITDSGGSTYYADSVKGRFTISRDNAKYTVYLQMNSLKPEDTAVYYCAADLRYWSWAFDYWGQGTQVTVSS”, “low polyreactivity”; that for “QVQLVESGGGLVQAGGSLRLSCAASGSIFSPYTMGWYRQAPGKERELVAAMSASGGSTYYADSVKGRFTISRDNAKNTVYLQMNSLKPEDTAVYYCNVYRITRHSYNCGFDYWGQGTQVTVSS”, “low polyreactivity”. Consider “QVQLVESGGGLVQAGGSLRLSCAASGSIFSQYAMGWYRQAPGKERELVAAITYGGGSTYYADSVKGRFTISRDNAKNTVYFQMNSLKPEDTAVYYCAKEFKYWGYPYDYWGQGTQVTVSS”, for which the “polyreactivity (PSR sort gate)” value is listed as “low polyreactivity”.
